Data as given in patent publication US8518892B2, “Methods to treat symptoms of pathophysiology related to body mass” (Board of Supervisors of Louisiana State University and …, priority 2005, dated 2013).

System: DIO C57BL/6J mice
Experiment: Enho 1 ip for 7 days in DIO C57BL/6J mice (Examples 23-25)
Assay type: in vivo, mouse
Protocol: (§1) The effect of Enho-1 upon weight loss was tested over the course of 7 days using DIO C57BL/6J mice (Charles River Laboratories). The mice were fed a high fat diet (Research Diets 12492) for 10 weeks prior to the start of the experiment, which was begun when the mice were 15-16 weeks of age. Control mice received vehicle only while test mice each received doses of either 90 nmol/kg/d, 900 nmol/kg/d or 9000 nmol/kg/d. The injections were given as 3 ip injections at 0800, 1200 and 1600 h for 7 days. On day 8, the mice were given the 0800 h injection and were sacrificed 1-3 h later.
as §1, with “insulin and glucose” for “weight loss”, “later at which time blood samples were collected and levels of insulin and glucose determined.” for “later.”
The HOMA-IR for each treatment was calculated using the following formula: ((glucose mg/dL÷18)×(insulin ng/ml×25.05))÷22.5
as §1, with “levels of blood lipids” for “weight loss”, “later at which time blood samples were collected and levels of trigylcerides determined. Triglycerides were measured using a Triglyceride L-Type TG H kit (Wako Diagnostics).” for “later.”

[1] = 90 nmol/kg/d ip, listed as Enho-1
[2] = 900 nmol/kg/d ip, listed as Enho-1
[3] = 9000 nmol/kg/d ip, listed as Enho-1

B1: Enho 1: human Enho 1, a 76 amino acid peptide having the sequence SEQ ID NO: 14 (peptide, listed as Homo sapiens)
chain: MGAAISQGALIAIVCNGLVGFLLLLLWVILCWACHSRSADVDSLSESSPNSSPGPCPEKAPPPQKPSHEGSYLLQP
Blood glucose (90 nmol/kg/d ip): 182 mg/dL | Delta body weight (90 nmol/kg/d ip): 6.6% | HOMA-IR (90 nmol/kg/d ip): 15 | HOMA-IR decrease as compared to the control group (90 nmol/kg/d ip): 15% | Insulin (90 nmol/kg/d ip): 1.3 ng/mL | TG (blood triglyceride level) (90 nmol/kg/d ip): 22.5 mg/dL | Weight (pre-treatment) (90 nmol/kg/d ip): 36.5 g | Weight (termination) (90 nmol/kg/d ip): 34.0 g | Blood glucose [1]: 182 ± 17 mg/dL | HOMA-IR [1]: 15 ± 2 | HOMA-IR decrease as compared to the control group [1]: (↓ 32%) | Insulin [1]: 1.3 ± 0.1 ng/mL | TG (blood triglyceride level) [1]: 22.5 ± 6.0 mg/dL | Weight (pre-treatment) [1]: 36.5 ± 1.3 g | Weight (termination) [1]: 34.0 ± 1.0 g | Blood glucose (900 nmol/kg/d ip): 212 mg/dL | Delta body weight (900 nmol/kg/d ip): 7.1% | HOMA-IR (900 nmol/kg/d ip): 29 | HOMA-IR decrease as compared to the control group (900 nmol/kg/d ip): 29% | Insulin (900 nmol/kg/d ip): 2.2 ng/mL | TG (blood triglyceride level) (900 nmol/kg/d ip): 38.0 mg/dL | Weight (pre-treatment) (900 nmol/kg/d ip): 37.9 g | Weight (termination) (900 nmol/kg/d ip): 36.0 g | Blood glucose [2]: 212 ± 11 mg/dL | HOMA-IR [2]: 29 ± 4 | Insulin [2]: 2.2 ± 0.3 ng/mL | TG (blood triglyceride level) [2]: 38.0 ± 12.5 mg/dL | Weight (pre-treatment) [2]: 37.9 ± 1.4 g | Weight (termination) [2]: 36.0 ± 1.2 g | Blood glucose (9000 nmol/kg/d ip): 190 mg/dL | Delta body weight (9000 nmol/kg/d ip): 6.7% | HOMA-IR (9000 nmol/kg/d ip): 16 | HOMA-IR decrease as compared to the control group (9000 nmol/kg/d ip): 27% | Insulin (9000 nmol/kg/d ip): 1.3 ng/mL | TG (blood triglyceride level) (9000 nmol/kg/d ip): 18.5 mg/dL | TG decrease from the control (9000 nmol/kg/d ip): 19% | Weight (pre-treatment) (9000 nmol/kg/d ip): 33.8 g | Weight (termination) (9000 nmol/kg/d ip): 31.6 g | Blood glucose [3]: 190 ± 16 mg/dL | HOMA-IR [3]: 16 ± 4 | HOMA-IR decrease as compared to the control group [3]: (↓ 27%) | Insulin [3]: 1.3 ± 0.2 ng/mL | TG (blood triglyceride level) [3]: 18.5 ± 1.7 mg/dL | TG decrease from the control [3]: (↓ 19%) | Weight (pre-treatment) [3]: 33.8 ± 0.8 g | Weight (termination) [3]: 31.6 ± 0.7 g
